Measured values as given in article PMC2688778 (Structure (London, England : 1993), 2009).

What was measured:
[1] = biological target: T1, RecE606 P658L (Escherichia coli K12, UniProt P15032 606-866, P658L); test: fluorescence anisotropy
T1 sequence: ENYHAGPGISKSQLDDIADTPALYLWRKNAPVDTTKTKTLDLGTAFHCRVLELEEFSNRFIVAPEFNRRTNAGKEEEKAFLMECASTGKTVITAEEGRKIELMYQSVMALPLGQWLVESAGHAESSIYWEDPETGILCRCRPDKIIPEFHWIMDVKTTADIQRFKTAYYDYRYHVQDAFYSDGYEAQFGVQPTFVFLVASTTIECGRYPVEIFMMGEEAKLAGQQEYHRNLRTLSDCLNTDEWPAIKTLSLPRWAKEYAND

[2] = biological target: T2, RecE564 R858A (Escherichia coli K12, UniProt P15032 564-866, R858A); test: fluorescence anisotropy
T2 sequence: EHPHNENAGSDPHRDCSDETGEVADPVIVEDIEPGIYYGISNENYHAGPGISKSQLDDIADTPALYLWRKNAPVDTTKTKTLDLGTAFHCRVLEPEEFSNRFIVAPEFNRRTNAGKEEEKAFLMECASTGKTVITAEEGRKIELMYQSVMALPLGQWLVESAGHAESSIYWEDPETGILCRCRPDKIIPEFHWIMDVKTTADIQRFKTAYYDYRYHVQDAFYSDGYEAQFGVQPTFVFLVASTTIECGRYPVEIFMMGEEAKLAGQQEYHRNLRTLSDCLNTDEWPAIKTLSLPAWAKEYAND

B1: F25 (dsDNA)
DNA 1: TAGAGCTTAATTGCTGAATCTGGTG
DNA 2: CACCAGATTCAGCAATTAAGCTCTA
In the case of B1, the Kd [1] is reported as 110 ± 20 nM and the Kd [2] is reported as 77 ± 5 nM.
